Measurements as given in patent publication US20200283521A1 (GRANULAR THERAPEUTICS, published 2020).

Columns and labels:
Assay in all cases: direct ELISA on coated protein, IgG1
hLTBR-Fc = target: T1, hLTBR-Fc (human, UniProt P36941)
T1 construct: Fc fusion; member of the panel m9

hDR6-Fc = target: T2, hDR6-Fc (human, UniProt O75509)
T2 construct: Fc fusion; member of the panel m9
T2 sequence (looked up): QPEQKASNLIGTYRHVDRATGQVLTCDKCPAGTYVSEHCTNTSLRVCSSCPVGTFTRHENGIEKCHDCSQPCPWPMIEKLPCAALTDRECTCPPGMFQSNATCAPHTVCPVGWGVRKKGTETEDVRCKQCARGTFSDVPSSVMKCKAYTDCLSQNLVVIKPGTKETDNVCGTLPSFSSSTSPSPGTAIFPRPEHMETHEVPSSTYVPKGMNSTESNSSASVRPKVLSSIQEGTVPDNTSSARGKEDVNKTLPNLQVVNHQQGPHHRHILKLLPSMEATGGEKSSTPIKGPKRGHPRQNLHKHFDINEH

hVCAM-1 = target: T3, hVCAM-1 (human, UniProt P19320)
T3 construct: purified recombinant protein; member of the panel m9
T3 sequence (looked up): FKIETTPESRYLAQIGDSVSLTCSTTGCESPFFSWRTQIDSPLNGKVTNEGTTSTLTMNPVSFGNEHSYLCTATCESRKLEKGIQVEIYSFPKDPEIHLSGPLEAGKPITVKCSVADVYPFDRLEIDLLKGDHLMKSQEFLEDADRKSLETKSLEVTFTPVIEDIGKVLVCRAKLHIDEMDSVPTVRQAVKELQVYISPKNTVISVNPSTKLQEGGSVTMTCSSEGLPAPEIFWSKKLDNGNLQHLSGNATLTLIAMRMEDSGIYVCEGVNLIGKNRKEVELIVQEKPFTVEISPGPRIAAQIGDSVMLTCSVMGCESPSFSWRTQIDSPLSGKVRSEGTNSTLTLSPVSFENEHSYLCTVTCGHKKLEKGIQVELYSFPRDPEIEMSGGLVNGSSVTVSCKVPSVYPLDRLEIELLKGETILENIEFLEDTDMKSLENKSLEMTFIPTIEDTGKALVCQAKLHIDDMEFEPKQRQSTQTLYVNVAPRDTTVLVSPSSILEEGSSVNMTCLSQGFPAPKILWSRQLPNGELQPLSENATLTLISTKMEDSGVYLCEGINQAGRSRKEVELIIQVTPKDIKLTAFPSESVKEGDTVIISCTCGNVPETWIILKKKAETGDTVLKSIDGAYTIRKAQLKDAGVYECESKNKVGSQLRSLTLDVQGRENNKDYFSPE

hDR3-Fc = target: T4, hDR3-Fc (human, UniProt Q93038)
T4 construct: Fc fusion; member of the panel m9
T4 sequence (looked up): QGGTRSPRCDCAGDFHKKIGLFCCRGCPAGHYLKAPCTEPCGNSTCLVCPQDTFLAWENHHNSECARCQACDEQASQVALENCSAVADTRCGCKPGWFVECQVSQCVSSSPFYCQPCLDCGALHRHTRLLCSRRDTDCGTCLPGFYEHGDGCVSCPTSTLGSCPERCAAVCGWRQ

hCMET-Fc = target: T5, hCMET-Fc (The natural ectodomain is cleaved by furin after residue 307 into disulfide-linked alpha and beta chains. It is given here as one continuous stretch.)
T5 construct: member of the panel m9
T5 chain: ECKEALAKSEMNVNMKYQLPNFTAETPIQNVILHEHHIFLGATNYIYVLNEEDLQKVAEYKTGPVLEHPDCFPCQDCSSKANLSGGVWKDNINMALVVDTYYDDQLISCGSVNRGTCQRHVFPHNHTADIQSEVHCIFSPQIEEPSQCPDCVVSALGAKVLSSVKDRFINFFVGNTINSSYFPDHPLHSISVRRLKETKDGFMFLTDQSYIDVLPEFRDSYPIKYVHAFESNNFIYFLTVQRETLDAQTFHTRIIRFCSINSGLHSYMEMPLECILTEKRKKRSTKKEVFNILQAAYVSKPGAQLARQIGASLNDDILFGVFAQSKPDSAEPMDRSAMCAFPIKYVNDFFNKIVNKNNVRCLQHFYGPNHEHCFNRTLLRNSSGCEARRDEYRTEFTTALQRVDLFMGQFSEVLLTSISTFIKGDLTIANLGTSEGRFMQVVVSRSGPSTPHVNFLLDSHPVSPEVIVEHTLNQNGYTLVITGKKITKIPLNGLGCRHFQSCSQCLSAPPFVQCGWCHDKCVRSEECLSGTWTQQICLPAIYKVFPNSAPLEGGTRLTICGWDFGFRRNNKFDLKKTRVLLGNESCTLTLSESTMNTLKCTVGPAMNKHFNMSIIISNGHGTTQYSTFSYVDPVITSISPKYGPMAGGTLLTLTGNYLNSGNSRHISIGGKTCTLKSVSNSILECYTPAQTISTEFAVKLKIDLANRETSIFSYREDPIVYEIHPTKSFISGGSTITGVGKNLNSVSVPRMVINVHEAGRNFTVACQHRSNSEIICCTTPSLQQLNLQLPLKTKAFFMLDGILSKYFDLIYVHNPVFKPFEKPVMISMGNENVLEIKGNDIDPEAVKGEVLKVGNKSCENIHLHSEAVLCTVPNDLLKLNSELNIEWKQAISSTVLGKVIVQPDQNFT

hBAFFR-Fc = target: T6, hBAFFR-Fc (human, UniProt Q96RJ3)
T6 construct: Fc fusion; member of the panel m9

hCD4 = target: T7, hCD4 (human, UniProt P01730)
T7 construct: purified recombinant protein; member of the panel m9

hTWEAK-Fc = target: T8, hTWEAK-Fc (human, UniProt O43508)
T8 construct: Fc fusion; member of the panel m9
T8 sequence (looked up): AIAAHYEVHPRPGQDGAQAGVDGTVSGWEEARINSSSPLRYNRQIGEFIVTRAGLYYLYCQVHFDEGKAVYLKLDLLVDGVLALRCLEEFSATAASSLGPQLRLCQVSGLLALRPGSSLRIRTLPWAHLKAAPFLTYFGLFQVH

hOX40-Fc = target: T9, hOX40-Fc
T9 construct: member of the panel m9
T9 chain: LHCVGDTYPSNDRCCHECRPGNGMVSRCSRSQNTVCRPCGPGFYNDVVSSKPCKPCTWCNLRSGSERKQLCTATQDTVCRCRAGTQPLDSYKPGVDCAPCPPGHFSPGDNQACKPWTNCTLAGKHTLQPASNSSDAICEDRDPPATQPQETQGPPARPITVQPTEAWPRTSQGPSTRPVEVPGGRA

hICAM-1-Fc = target: T10, hICAM-1-Fc (human, UniProt P05362)
T10 construct: Fc fusion; member of the panel m9

Measured: binding result

T6 sequence (Q96RJ3 7-71 limits assumed): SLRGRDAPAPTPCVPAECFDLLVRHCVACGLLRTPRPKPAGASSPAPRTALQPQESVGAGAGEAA
T10 sequence (P05362 28-480 limits assumed): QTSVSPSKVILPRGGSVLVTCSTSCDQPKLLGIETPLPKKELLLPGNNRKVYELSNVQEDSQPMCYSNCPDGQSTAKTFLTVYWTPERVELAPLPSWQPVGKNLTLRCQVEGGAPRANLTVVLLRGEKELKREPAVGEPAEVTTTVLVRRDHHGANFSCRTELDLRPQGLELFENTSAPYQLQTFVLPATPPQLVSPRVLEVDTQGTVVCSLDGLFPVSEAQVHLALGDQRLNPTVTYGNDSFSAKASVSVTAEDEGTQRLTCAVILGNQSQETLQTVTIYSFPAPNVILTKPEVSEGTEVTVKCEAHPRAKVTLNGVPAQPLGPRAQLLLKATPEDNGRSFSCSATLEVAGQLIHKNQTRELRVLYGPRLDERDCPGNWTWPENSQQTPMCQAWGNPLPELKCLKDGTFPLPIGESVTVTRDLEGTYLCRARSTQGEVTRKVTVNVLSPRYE
T1 sequence (P36941 28-227 limits assumed): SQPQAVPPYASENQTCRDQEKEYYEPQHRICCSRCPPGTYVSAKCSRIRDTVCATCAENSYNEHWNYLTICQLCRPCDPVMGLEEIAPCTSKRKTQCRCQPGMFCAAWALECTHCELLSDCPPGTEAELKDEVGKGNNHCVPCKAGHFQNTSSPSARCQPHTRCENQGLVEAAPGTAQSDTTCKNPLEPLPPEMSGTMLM

B1: MH5, human IgG1 (antibody, V domains shown)
VH: QVQLVQSGAEVKKPGASVKVSCKASGYTFTDYYMNWVRQAPGQGLEWMGRIYPGSGNTYYAQKFQGRVTMTRDTSTSTVYMELSSLRSEDTAVYYCARGVYYYDYWGQGTLVTVSS
VL: DIQMTQSPSSLSASVGDRVTITCRASQGIRTNLAWFQQKPGKAPKSLIYSASSLQSGVPSRFSGSGSGTDFTLTISSLQPEDFATYYCQQYANYPRTFGGGTKVEIK
notes: IgG1; also called C-KIT-MH5; C-KIT-MHS
no binding (tested: 1 µg/ml): hLTBR-Fc | hDR6-Fc | hVCAM-1 | hDR3-Fc | hCMET-Fc | hBAFFR-Fc | hCD4 | hTWEAK-Fc | hOX40-Fc | hICAM-1-Fc
